These are literature values, as cited in US11749377B2, “Method and electronic system for predicting at least one fitness value of a protein, related computer program product” (PEACCEL, priority 2015, dated 2023).

In one series the target is T1, rat GLP-1 receptor (Rattus norvegicus, UniProt P32301).
T1 sequence (P32301 22-463): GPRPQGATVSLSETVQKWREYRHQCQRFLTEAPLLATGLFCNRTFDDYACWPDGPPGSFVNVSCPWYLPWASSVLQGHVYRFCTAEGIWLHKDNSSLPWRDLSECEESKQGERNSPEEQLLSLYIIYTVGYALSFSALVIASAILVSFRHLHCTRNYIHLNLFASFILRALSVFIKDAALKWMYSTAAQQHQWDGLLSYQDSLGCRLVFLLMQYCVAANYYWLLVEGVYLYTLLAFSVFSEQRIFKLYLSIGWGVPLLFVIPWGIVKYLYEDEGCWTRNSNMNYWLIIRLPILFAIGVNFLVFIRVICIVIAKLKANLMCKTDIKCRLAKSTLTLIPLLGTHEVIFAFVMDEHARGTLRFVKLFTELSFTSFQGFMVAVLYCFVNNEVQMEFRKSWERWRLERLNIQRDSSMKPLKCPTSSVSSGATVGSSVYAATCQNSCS
The settings on record: Log(IC50), binding affinity to rat GLP-1 receptor.

Another series addresses T2, GLP-1 receptor (Rattus norvegicus, UniProt P32301).
T2 sequence (P32301 22-463): T1 sequence (P32301 22-463)
The settings on record: Log(EC50), adenylate cyclase activity.

Turning to “GLP1 K20A: single mutant analog of human GLP1”, in the series with rat GLP-1 receptor, the logIC50 is on record as 0.1461. The logEC50 in the series with GLP-1 receptor is 1.114.
As for “GLP1 R30A: single mutant analog of human GLP1”, the logIC50 in the series with rat GLP-1 receptor was 0.6628. In the series with GLP-1 receptor, the logEC50 is 0.8451.
As to “GLP1 L14A: single mutant analog of human GLP1”, the logIC50 in the series with rat GLP-1 receptor is listed as 0.2304. Further, the logEC50 in the series with GLP-1 receptor is 0.8451.
“GLP1 S8A: single mutant analog of human GLP1”: the logIC50 with rat GLP-1 receptor is given as −0.1192. Also, the logEC50 with GLP-1 receptor is 0.699.
As for “GLP1 Y13A: single mutant analog of human GLP1”, the logIC50 with rat GLP-1 receptor is listed as 0.5441. In the series with GLP-1 receptor, the logEC50 is on record as 1.74.
For “GLP1 E15A: single mutant analog of human GLP1”, the logIC50 with rat GLP-1 receptor is given as 0.6128. Also, in the series with GLP-1 receptor, the logEC50 was 1.813.
On to “GLP1 W25A: single mutant analog of human GLP1”, for which the logIC50 in the series with rat GLP-1 receptor is recorded as 0.2041. Further, the logEC50 with GLP-1 receptor is reported as 1.176.
With “GLP1 S11A: single mutant analog of human GLP1”, the logIC50 with rat GLP-1 receptor is listed as −0.3372. For the same substance, in the series with GLP-1 receptor, the logEC50 was 0.4771.
As for “GLP1 Q17A: single mutant analog of human GLP1”, the logIC50 in the series with rat GLP-1 receptor is on record as 0.04139. Besides, the logEC50 with GLP-1 receptor is reported as 0.699.
As for “GLP1 G4A: single mutant analog of human GLP1”, in the series with rat GLP-1 receptor, the logIC50 was 1.771.
For the substance “GLP1 E3A: single mutant analog of human GLP1”, the logIC50 with rat GLP-1 receptor is recorded as 0.9085. In the series with GLP-1 receptor, the logEC50 is on record as 0.301.
For the substance “GLP1 G29A: single mutant analog of human GLP1”, in the series with rat GLP-1 receptor, the logIC50 was 0.1139. Moreover, in the series with GLP-1 receptor, the logEC50 was 0.
Take “GLP1 F6A: single mutant analog of human GLP1”: the logIC50 with rat GLP-1 receptor is 1.5563. For the same substance, the logEC50 with GLP-1 receptor is 1.519.
Turning to “GLP1 K28A: single mutant analog of human GLP1”, in the series with rat GLP-1 receptor, the logIC50 is 0.2304. Besides, the logEC50 with GLP-1 receptor is reported as 0.301.
For the substance “GLP1 S12A: single mutant analog of human GLP1”, the logIC50 with rat GLP-1 receptor is listed as −0.1675. Moreover, the logEC50 with GLP-1 receptor was 0.301.
Consider “GLP1 A18R: single mutant analog of human GLP1”, for which the logIC50 with rat GLP-1 receptor is −0.05061. In addition, the logEC50 with GLP-1 receptor is reported as 1.23.
Turning to “GLP1 T7A: single mutant analog of human GLP1”, in the series with rat GLP-1 receptor, the logIC50 is 1.5563. For the same substance, the logEC50 with GLP-1 receptor is on record as 1.813.
Consider “GLP1 F22A: single mutant analog of human GLP1”, for which, in the series with rat GLP-1 receptor, the logIC50 is reported as 2.545. In addition, the logEC50 with GLP-1 receptor was 3.415.
Regarding “GLP1 T5A: single mutant analog of human GLP1”, the logIC50 with rat GLP-1 receptor is 0.5441. The logEC50 with GLP-1 receptor was 0.699.
As to “GLP1 V10A: single mutant analog of human GLP1”, the logIC50 with rat GLP-1 receptor is listed as 0.2304. The logEC50 with GLP-1 receptor was 0.8451.
Turning to “GLP1 G16A: single mutant analog of human GLP1”, in the series with rat GLP-1 receptor, the logIC50 was −0.2441. The logEC50 in the series with GLP-1 receptor was 0.6021.
For “GLP1 I23A: single mutant analog of human GLP1”, the logIC50 in the series with rat GLP-1 receptor was 1.398. Also, the logEC50 with GLP-1 receptor is given as 1.8451.
Take “GLP1 V27A: single mutant analog of human GLP1”: the logIC50 with rat GLP-1 receptor is given as 0.1461. For the same substance, the logEC50 in the series with GLP-1 receptor was 0.301.
As for “GLP1 D9A: single mutant analog of human GLP1”, in the series with rat GLP-1 receptor, the logIC50 is listed as 1.041.
“GLP1 A2S: single mutant analog of human GLP1”: the logIC50 with rat GLP-1 receptor is 0.3802. For the same substance, in the series with GLP-1 receptor, the logEC50 is 0.301.
With “GLP1 L26A: single mutant analog of human GLP1”, the logIC50 in the series with rat GLP-1 receptor is on record as 0.6721. Besides, the logEC50 with GLP-1 receptor is reported as 0.6021.
